Biological target: FGF23 receptor
Experiment: cell-based or functional assay

B1: sKlotho-FGF23-6×His fusion polypeptide (ligand)
chain: EPGDGAQTWARFSRPPAPEAAGLFQGTFPDGFLWAVGSAAYQTEGGWQQHGKGASIWDTFTHHPLAPPGDSRNASLPLGAPSPLQPATGDVASDSYNNVFRDTEALRELGVTHYRFSISWARVLPNGSAGVPNREGLRYYRRLLERLRELGVQPVVTLYHWDLPQRLQDAYGGWANRALADHFRDYAELCFRHFGGQVKYWITIDNPYVVAWHGYATGRLAPGIRGSPRLGYLVAHNLLLAHAKVWHLYNTSFRPTQGGQVSIALSSHWINPRRMTDHSIKECQKSLDFVLGWFAKPVFIDGDYPESMKNNLSSILPDFTESEKKFIKGTADFFALCFGPTLSFQLLDPHMKFRQLESPNLRQLLSWIDLEFNHPQIFIVENGWFVSGTTKRDDAKYMYYLKKFIMETLKAIKLDGVDVIGYTAWSLMDGFEWHRGYSIRRGLFYVDFLSQDKMLLPKSSALFYQKLIEKNGFPPLPENQPLEGTFPCDFAWGVVDNYIQVDTTLSQFTDLNVYLWDVHHSKRLIKVDGVVTKKRKSYCVDFAAIQPQIALLQEMHVTHFRFSLDWALILPLGNQSQVNHTILQYYRCMASELVRVNITPVVALWQPMAPNQGLPRLLARQGAWENPYTALAFAEYARLCFQELGHHVKLWITMNEPYTRNMTYSAGHNLLKAHALAWHVYNEKFRHAQNGKISIALQADWIEPACPFSQKDKEVAERVLEFDIGWLAEPIFGSGDYPWVMRDWLNQRNNFLLPYFTEDEKKLIQGTFDFLALSHYTTILVDSEKEDPIKYNDYLEVQEMTDITWLNSPSQVAVVPWGLRKVLNWLKFKYGDLPMYIISNGIDDGLHAEDDQLRVYYMQNYINEALKAHILDGINLCGYFAYSFNDRTAPRFGLYRYAADQFEPKASMKHYRKIIDSNGFPGPETLERFCPEEFTVCTECSFFHTRKSLGSGGGGSGGGGSGGGGSLKYPNASPLLGSSWGGLIHLYTATARNSYHLQIHKNGHVDGAPHQTIYSALMIRSEDAGFVVITGVMSRRYLCMDFRGNIFGSHYFDPENCRFQHQTLENGYDVYHSPQYHFLVSLGRAKRAFLPGMNPPPYSQFLSRRNEIPLIHFNTPIPRRHTQSAEDDSERDPLNVLKPRARMTPAPASCSQELPSAEDNSPMASDPLGVVRGGRVNTHAGGTGPEGCRPFAKFIHHHHHH
- Egr-1-luciferase reporter activity, fold change at about 0.6 nM, with heparin (20 µg/ml): 2 fold change
- Egr-1-luciferase reporter activity, fold change at about 1.21 nM, no heparin: 1.2 fold change
- Egr-1-luciferase reporter activity, fold change at about 19.3 nM, no heparin: 2.4 fold change
